Assays:
Assay in all cases: SPR, Biacore T200, pH 7.4; antibody captured on Protein L, FcγR as analyte
human FcγRIa = target: T1, human FcγRIa (human, UniProt P12314 16-292, limits assumed)
T1 construct: also called hFcgRIa

[1] = target: T2, human FcγRIIa, allotype 167R (human, UniProt P12318 34-217, limits assumed)
T2 construct: also called hFcgRIIa_167R
T2 sequence (looked up): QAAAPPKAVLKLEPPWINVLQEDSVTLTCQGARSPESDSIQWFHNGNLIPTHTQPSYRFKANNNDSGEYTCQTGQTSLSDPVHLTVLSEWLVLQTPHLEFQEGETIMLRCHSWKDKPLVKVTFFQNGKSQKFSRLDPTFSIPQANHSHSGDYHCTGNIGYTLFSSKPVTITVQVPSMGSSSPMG

[2] = target: T3, human FcγRIIIa, allotype 176F (human, UniProt P08637 17-208, limits assumed)
T3 construct: also called hFcgRIIIa_176F

[3] = target: T4, human FcγRIIIa, allotype 176V (human, UniProt P08637 17-208, limits assumed)
T4 construct: also called hFcgRIIIa_176V

Measured: binding result

B1: Sample No. 87 (antibody, human IgG1, kappa)
heavy: QVQLQESGPGLVRPSQTLSLTCTVSGYSITSDHAWSWVRQPPGRGLEWIGYISYSGITTYNPSLKSRVTMLRDTSKNQFSLRLSSVTAADTAVYYCARSLARTTAMDYWGQGSLVTVSSASTKGPSVFPLAPSSKSTSGGTAALGCLVKDYFPEPVTVSWNSGALTSGVHTFPAVLQSSGLYSLSSVVTVPSSSLGTQTYICNVNHKPSNTKVDKRVEPKSCDKTHTCPPCPAPELLGGPSVFLFPPKPKDTLMISRTPEVTCVVVDVSHEDPEVKFNWYVDGVEVHNAKTKPREEQYNSTYRVVSVLTVLHQDWLNGKEYKCKVSNKALPAPIEKTISKAKGQPREPQVYTLPPSREEMTKNQVSLWCAVKGFYPSDIAVEWESNGQPENNYKTTPPVLDSDGSFFLVSKLTVDKSRWQQGNVFSCSVMHEALHNHYTQKSLSLSP
light: not shown
notes: also called T366W/L368A/Y407V
binds: all assays above

B2: Sample No. 92 (antibody, human IgG1, kappa)
heavy: QVQLQESGPGLVRPSQTLSLTCTVSGYSITSDHAWSWVRQPPGRGLEWIGYISYSGITTYNPSLKSRVTMLRDTSKNQFSLRLSSVTAADTAVYYCARSLARTTAMDYWGQGSLVTVSSASTKGPSVFPLAPSSKSTSGGTAALGCLVKDYFPEPVTVSWNSGALTSGVHTFPAVLQSSGLYSLSSVVTVPSSSLGTQTYICNVNHKPSNTKVDKRVEPKSCDKTHTCPPCPAPELLGGPSVFLFPPKPKDTLMISRTPEVTCVVVDVSHEDPEVKFNWYVDGVEVHNAKTKPREEQYNSTYRVVSVLTVLHQDWLNGKEYKCKVSNKALPAPIEKTISKAKGQPREPRVYTLPPSREEMTENQVSLTCLVKGFYPSDIAVEWESNGQPENNYKTTPPVLVSDGSFTLYSWLTVDKSRWQQGNVFSCSVMHEALHNHYTQKSLSLSP
light: not shown
notes: also called Q347R/K360E/D399V/F405T/K409W
binds: all assays above

B3: Sample No. 97 (antibody, human IgG1, kappa)
heavy: QVQLQESGPGLVRPSQTLSLTCTVSGYSITSDHAWSWVRQPPGRGLEWIGYISYSGITTYNPSLKSRVTMLRDTSKNQFSLRLSSVTAADTAVYYCARSLARTTAMDYWGQGSLVTVSSASTKGPSVFPLAPSSKSTSGGTAALGCLVKDYFPEPVTVSWNSGALTSGVHTFPAVLQSSGLYSLSSVVTVPSSSLGTQTYICNVNHKPSNTKVDKRVEPKSCDKTHTCPPCPAPELLGGPSVFLFPPKPKDTLMISRTPEVTCVVVDVSHEDPEVKFNWYVDGVEVHNAKTKPREEQYNSTYRVVSVLTVLHQDWLNGKEYKCKVSNKALPAPIEKTISKAKGQPREPQVYTLPPSRKEMTKNQVSLTCLVKGFYPSDIAVEWESNGQPENNYKTTPPVLKSDGSFFLYSELTVDKSRWQQGNVFSCSVMHEALHNHYTQESLSLSP
light: not shown
notes: also called E356K/D399K/K409E/K439E
binds: all assays above

B4: Sample No. 100 (antibody, human IgG1, kappa)
heavy: QVQLQESGPGLVRPSQTLSLTCTVSGYSITSDHAWSWVRQPPGRGLEWIGYISYSGITTYNPSLKSRVTMLRDTSKNQFSLRLSSVTAADTAVYYCARSLARTTAMDYWGQGSLVTVSSASTKGPSVFPLAPSSKSTSGGTAALGCLVKDYFPEPVTVSWNSGALTSGVHTFPAVLQSSGLYSLSSVVTVPSSSLGTQTYICNVNHKPSNTKVDKRVEPKSCDKTHTCPPCPAPELLGGPSVFLFPPKPKDTLMISRTPEVTCVVVDVSHEDPEVKFNWYVDGVEVHNAKTKPREEQYNSTYRVVSVLTVLHQDWLNGKEYKCKVSNKALPAPIEKTISKAKGQPREPEVYTLPPYREEMTKNQVSLYCLVKGFYPSDIAVEWESNGQPENNYKTTPPVLDSDGSFFLTSKLTVDKSRWQQGNVFSCSVMHEALHNHYTQKSLSLSP
light: not shown
notes: also called Q347E/S354Y/T366Y/Y407T
binds: all assays above

B5: Sample No. 102 (antibody, human IgG1, kappa)
heavy: QVQLQESGPGLVRPSQTLSLTCTVSGYSITSDHAWSWVRQPPGRGLEWIGYISYSGITTYNPSLKSRVTMLRDTSKNQFSLRLSSVTAADTAVYYCARSLARTTAMDYWGQGSLVTVSSASTKGPSVFPLAPSSKSTSGGTAALGCLVKDYFPEPVTVSWNSGALTSGVHTFPAVLQSSGLYSLSSVVTVPSSSLGTQTYICNVNHKPSNTKVDKRVEPKSCDKTHTCPPCPAPELLGGPSVFLFPPKPKDTLMISRTPEVTCVVVDVSHEDPEVKFNWYVDGVEVHNAKTKPREEQYNSTYRVVSVLTVLHQDWLNGKEYKCKVSNKALPAPIEKTISKAKGQPREPQVYTLPPSREEMTKNQVSLTCLVKGFYPSDIAVEWESNGQPENNYLTWPPVLDSDGSFALVSKLTVDKSRWQQGNVFSCSVMHEALHNHYTQKSLSLSP
light: not shown
notes: also called K392L/T394W/F405A/Y407V
binds: all assays above

B6: Sample No. 109 (antibody, human IgG1, kappa)
heavy: QVQLQESGPGLVRPSQTLSLTCTVSGYSITSDHAWSWVRQPPGRGLEWIGYISYSGITTYNPSLKSRVTMLRDTSKNQFSLRLSSVTAADTAVYYCARSLARTTAMDYWGQGSLVTVSSASTKGPSVFPLAPSSKSTSGGTAALGCLVKDYFPEPVTVSWNSGALTSGVHTFPAVLQSSGLYSLSSVVTVPSSSLGTQTYICNVNHKPSNTKVDKRVEPKSCDKTHTCPPCPAPELLGGPSVFLFPPKPKDTLMISRTPEVTCVVVDVSHEDPEVKFNWYVDGVEVHNAKTKPREEQYNSTYRVVSVLTVLHQDWLNGKEYKCKVSNKALPAPIEKTISKAKGQPREPQVYTLPPSRKEMTKNQVSLTCLVKGFYPSDIAVEWESNGQPENNYDTTPPVLKSDGSFFLYSKLTVDKSRWQQGNVFSCSVMHEALHNHYTQESLSLSP
light: not shown
notes: also called E356K/K392D/D399K/K439E
binds: all assays above

B7: Sample No. 111 (antibody, human IgG1, kappa)
heavy: QVQLQESGPGLVRPSQTLSLTCTVSGYSITSDHAWSWVRQPPGRGLEWIGYISYSGITTYNPSLKSRVTMLRDTSKNQFSLRLSSVTAADTAVYYCARSLARTTAMDYWGQGSLVTVSSASTKGPSVFPLAPSSKSTSGGTAALGCLVKDYFPEPVTVSWNSGALTSGVHTFPAVLQSSGLYSLSSVVTVPSSSLGTQTYICNVNHKPSNTKVDKRVEPKSCDKTHTCPPCPAPELLGGPSVFLFPPKPKDTLMISRTPEVTCVVVDVSHEDPEVKFNWYVDGVEVHNAKTKPREEQYNSTYRVVSVLTVLHQDWLNGKEYKCKVSNKALPAPIEKTISKAKGQPREPQVYTLPPSREEMTKNQVSLTCLVKGFYPSDIAVEWESNGQPENNYDTTPPVLKSDGSFFLYSDLTVDKSRWQQGNVFSCSVMHEALHNHYTQKSLSLSP
light: not shown
notes: also called K392D/D399K/K409D
binds: all assays above

B8: Sample No. 112 (antibody, human IgG1, kappa)
heavy: QVQLQESGPGLVRPSQTLSLTCTVSGYSITSDHAWSWVRQPPGRGLEWIGYISYSGITTYNPSLKSRVTMLRDTSKNQFSLRLSSVTAADTAVYYCARSLARTTAMDYWGQGSLVTVSSASTKGPSVFPLAPSSKSTSGGTAALGCLVKDYFPEPVTVSWNSGALTSGVHTFPAVLQSSGLYSLSSVVTVPSSSLGTQTYICNVNHKPSNTKVDKRVEPKSCDKTHTCPPCPAPELLGGPSVFLFPPKPKDTLMISRTPEVTCVVVDVSHEDPEVKFNWYVDGVEVHNAKTKPREEQYNSTYRVVSVLTVLHQDWLNGKEYKCKVSNKALPAPIEKTISKAKGQPREPQVCTLPPSRECMTKNQVSLTCLVKGFYPSDIAVEWESNGQPENNYDTTPPVLKSDGSFFLYSKLTVDKSRWQQGNVFSCSVMHEALHNHYTQKSLSLSP
light: not shown
notes: also called Y349C/E357C/K392D/D399K
binds: all assays above

— patent US20260217835A1 (published 2026)
